1 molecule from paper PMC5487381, “Thioredoxin A Is Essential for Motility and Contributes to Host Infection of Listeria monocytogenes via Redox Interactions” (Frontiers in Cellular and Infection Microbiology, 2017) can be followed below.

The target of this experiment is T1, PrfA, the central virulence regulator of Listeria (Listeria monocytogenes EGD-e, UniProt P22262 1-237).
T1 construct: PrfA, virulence regulator of the Crp/Fnr family, L. monocytogenes EGD-e, full-length ORF; The methods describe the recombinant proteins in general, not PrfA by name
T1 sequence: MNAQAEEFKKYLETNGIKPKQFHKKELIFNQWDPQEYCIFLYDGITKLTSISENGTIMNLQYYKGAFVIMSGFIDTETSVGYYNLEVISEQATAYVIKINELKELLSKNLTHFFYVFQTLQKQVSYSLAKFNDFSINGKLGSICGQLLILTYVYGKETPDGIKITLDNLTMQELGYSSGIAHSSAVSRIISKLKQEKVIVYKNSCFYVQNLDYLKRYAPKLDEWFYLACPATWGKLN
Put plainly: ITC; TrxA, TrxAox or TrxA active-site mutants (80-200 uM) in the syringe, PrfA, MogR, GmaR or MogR and GmaR (8-20 uM) in the cuvette; 25 C; 25 mM Tris-HCl pH 7.5, 100 mM NaCl; 15 uL injections, 300 s spacing; 1:1 binding model. The settings on record: both partners purified. (In general: In ITC the heat of successive injections is recorded.)

B1: Listeria monocytogenes thioredoxin A (TrxA) (enzyme, Listeria monocytogenes EGD-e, UniProt P0A4L3 1-103, looked up)
chain: MVKEITDATFEQETSEGLVLTDFWATWCGPCRMVAPVLEEIQEERGEALKIVKMDVDENPETPGSFGVMSIPTLLIKKDGEVVETIIGYRPKEELDEVINKYV
notes: Thioredoxin A (TrxA, Lmo1233) of L. monocytogenes EGD-e, full-length ORF; pET30a(+) may add further vector-encoded residues between the His tag and the ORF; also called Lmo1233
Take B1: the binding result is given as “binds”.
